# Measured values as given in patent publication US20190315799.
# Tested on: SpyTag-CsgA
Substance,"PTDH activity (OD 340 nm, absorbance of formed NADH)",amylase activity
PTDH-SpyCatcher,the thin cotton cloth exhibited almost exclusive specific-enzyme binding,–
amylase-SpyCatcher,–,amylase activity was observed throughout the experiment
